Results: patent US20110014117A1

Experiments:
[1] = molecular target: recombinant human soluble IGF1R fragment (R&D Systems) (human); assay: competitive ELISA on coated sIGF1R fragment, inhibition of biotinylated 19D12 LCF/HCA binding; antibody at 0.0625 ug/ml
[2] = molecular target: recombinant human soluble IGF1R fragment (R&D Systems) (human); assay: competitive ELISA on coated sIGF1R fragment, competitor biotinylated 19D12 LCF/HCA; antibody at 0.015625 ug/ml
[3] = molecular target: recombinant human soluble IGF1R fragment (R&D Systems) (human); assay: competitive ELISA on coated sIGF1R fragment, competitor biotinylated 19D12 LCF/HCA; antibody at 1 ug/ml
[4] = molecular target: recombinant human soluble IGF1R fragment (R&D Systems) (human); assay: competitive ELISA on coated sIGF1R fragment, competitor biotinylated 19D12 LCF/HCA; antibody at 0.125 ug/ml
[5] = molecular target: recombinant human soluble IGF1R fragment (R&D Systems) (human); assay: competitive ELISA on coated sIGF1R fragment, competitor biotinylated 19D12 LCF/HCA; antibody at 4 ug/ml
[6] = molecular target: recombinant human soluble IGF1R fragment (R&D Systems) (human); assay: competitive ELISA on coated sIGF1R fragment, inhibition of biotinylated 19D12 LCF/HCA binding; antibody at 4 ug/ml
[7] = molecular target: recombinant human soluble IGF1R fragment (R&D Systems) (human); assay: competitive ELISA on coated sIGF1R fragment, inhibition of biotinylated 19D12 LCF/HCA binding; antibody at 0.125 ug/ml
[8] = molecular target: recombinant human soluble IGF1R fragment (R&D Systems) (human); assay: competitive ELISA on coated sIGF1R fragment, competitor biotinylated 19D12 LCF/HCA; antibody at 2 ug/ml
[9] = molecular target: recombinant human soluble IGF1R fragment (R&D Systems) (human); assay: competitive ELISA on coated sIGF1R fragment, competitor biotinylated 19D12 LCF/HCA; antibody at 0.03125 ug/ml
[10] = molecular target: recombinant human soluble IGF1R fragment (R&D Systems) (human); assay: competitive ELISA on coated sIGF1R fragment, competitor biotinylated 19D12 LCF/HCA; antibody at 0.5 ug/ml
[11] = molecular target: recombinant human soluble IGF1R fragment (R&D Systems) (human); assay: competitive ELISA on coated sIGF1R fragment, inhibition of biotinylated 19D12 LCF/HCA binding; antibody at 0.007813 ug/ml
[12] = molecular target: recombinant human soluble IGF1R fragment (R&D Systems) (human); assay: competitive ELISA on coated sIGF1R fragment, competitor biotinylated 19D12 LCF/HCA; antibody at 8 ug/ml
[13] = molecular target: recombinant human soluble IGF1R fragment (R&D Systems) (human); assay: competitive ELISA on coated sIGF1R fragment, inhibition of biotinylated 19D12 LCF/HCA binding; antibody at 0.015625 ug/ml
[14] = molecular target: recombinant human soluble IGF1R fragment (R&D Systems) (human); assay: competitive ELISA on coated sIGF1R fragment, inhibition of biotinylated 19D12 LCF/HCA binding; antibody at 1 ug/ml
[15] = molecular target: recombinant human soluble IGF1R fragment (R&D Systems) (human); assay: competitive ELISA on coated sIGF1R fragment, competitor biotinylated 19D12 LCF/HCA; antibody at 0.0625 ug/ml
[16] = molecular target: recombinant human soluble IGF1R fragment (R&D Systems) (human); assay: competitive ELISA on coated sIGF1R fragment, inhibition of biotinylated 19D12 LCF/HCA binding; antibody at 0.25 ug/ml
[17] = molecular target: recombinant human soluble IGF1R fragment (R&D Systems) (human); assay: competitive ELISA on coated sIGF1R fragment, inhibition of biotinylated 19D12 LCF/HCA binding; antibody at 0.5 ug/ml
[18] = molecular target: recombinant human soluble IGF1R fragment (R&D Systems) (human); assay: competitive ELISA on coated sIGF1R fragment, inhibition of biotinylated 19D12 LCF/HCA binding; antibody at 0.03125 ug/ml
[19] = molecular target: recombinant human soluble IGF1R fragment (R&D Systems) (human); assay: competitive ELISA on coated sIGF1R fragment, competitor biotinylated 19D12 LCF/HCA; antibody at 0.007813 ug/ml
[20] = molecular target: recombinant human soluble IGF1R fragment (R&D Systems) (human); assay: competitive ELISA on coated sIGF1R fragment, inhibition of biotinylated 19D12 LCF/HCA binding; antibody at 8 ug/ml
[21] = molecular target: recombinant human soluble IGF1R fragment (R&D Systems) (human); assay: competitive ELISA on coated sIGF1R fragment, inhibition of biotinylated 19D12 LCF/HCA binding; antibody at 2 ug/ml
[22] = molecular target: recombinant human soluble IGF1R fragment (R&D Systems) (human); assay: competitive ELISA on coated sIGF1R fragment, competitor biotinylated 19D12 LCF/HCA; antibody at 0.25 ug/ml

Substance | % Inhibition [1] [%] | OD [2] [OD] | OD [3] [OD] | OD [4] [OD] | OD [5] [OD] | % Inhibition [6] [%] | % Inhibition [7] [%] | OD [8] [OD] | OD [9] [OD] | OD [10] [OD] | % Inhibition [11] [%] | OD [12] [OD] | % Inhibition [13] [%] | % Inhibition [14] [%] | OD [15] [OD] | % Inhibition [16] [%] | % Inhibition [17] [%] | % Inhibition [18] [%] | OD [19] [OD] | % Inhibition [20] [%] | further results
anti-IGF1R antibody 19D12 LCF/HCA | 21.7 | 1.25 | 0.001 | 0.443 | -0.0025 | 100 | 65.3 | -0.0025 | 1.1 | 0.021 | 4.05 | -0.0045 | 2.33 | 99.9 | 1 | 86.8 | 98.4 | 13.8 | 1.23 | 100 | % Inhibition [21]: 100%; OD [22]: 0.169 OD
commercially available anti-IGF1R antibody MAB391 | 2.69 | 1.25 | 0.355 | 1.16 | 0.0725 | 94.3 | 9.61 | 0.163 | 1.41 | 0.628 | -2.16 | 0.045 | 1.9 | 72.2 | 1.24 | 23.3 | 50.9 | -10.1 | 1.31 | 96.5 | % Inhibition [21]: 87.2%; OD [22]: 0.981 OD
